Here are results for 36 variants from the Human Domainome abundance scans (Beltran et al. 2025).

To fix the notation:
B1: Androgen receptor, residues 557 to 632; numbered along this chain, P10275 (parent)
chain: QKTCLICGDEASGCHYGALTCGSCKVFFKRAAEGKQKYLCASRNDCTIDKFRRKNCPSCRLRKCYEAGMTLGARKL

± gives the uncertainty stated by the source.

This data set covers variants of B1. The data set is described as follows: abundance fitness (aPCA) (normalised: wild type 0, dead -1); higher = more abundant; growth selection in yeast, the domain comes from the species named. The conditions noted are these: Homo sapiens.
For the variant QKTCLICGDEASGCHYGALTCGSCKVFFKRAAEGKTKYLCASRNDCTIDKFRRKNCPSCRLRKCYEAGMTLGARKL [Q36T], the abundance fitness is -0.173 ± 0.064.

Consider QKTCLICGDEASGCHYGALTCGSCKVFFKRAAEGKQKYLCASRNDCTIDKFRRKNCPSCRLRCCYEAGMTLGARKL [K63C], for which the abundance fitness was -0.143 ± 0.087.

Take QKTCLICGDEASGCHYGALTCGSCKVFFKRAAEGKQKYWCASRNDCTIDKFRRKNCPSCRLRKCYEAGMTLGARKL [L39W]: the abundance fitness was -0.064 ± 0.044.

Take QKTCLICGDEASGCHYGALTCGSCKVFFKRAAEGKQKYLCASRLDCTIDKFRRKNCPSCRLRKCYEAGMTLGARKL [N44L]: the abundance fitness was -0.251 ± 0.059.

For QKTCLICGDEASGCHYGALTCGSCKVFFKRAAEGKQKYLCASRYDCTIDKFRRKNCPSCRLRKCYEAGMTLGARKL [N44Y], the abundance fitness was -0.274 ± 0.15.

In the case of QKTCLICGDEASGCHYGALTCGSCKVFFKRAAEGKQKYLCASRMDCTIDKFRRKNCPSCRLRKCYEAGMTLGARKL [N44M], the abundance fitness was -0.083 ± 0.062.

Consider QKTCLICGDEASGCHYGALTCGSCKVFFKRAAEGKQKYLCASRHDCTIDKFRRKNCPSCRLRKCYEAGMTLGARKL [N44H], for which the abundance fitness was -0.229 ± 0.13.

With QKTCLICGDEASGCHYGALTCGSCKVFFKRAAEGKQKYLCASREDCTIDKFRRKNCPSCRLRKCYEAGMTLGARKL [N44E], the abundance fitness is -0.031 ± 0.056.

Turning to QKTCLICGDEASGCHYGALTCGSCKVFFKRAAEGKQKYLCASRNDCTIDKFRRKNCPSCRLRKCYEAGMTLGAEKL [R74E], the abundance fitness was found to be 0.066 ± 0.1.

On to QKTCLICGDEASGCHYGALTCGSCKVFFKRAAEGKQKYLKASRNDCTIDKFRRKNCPSCRLRKCYEAGMTLGARKL [C40K], for which the abundance fitness is -0.632 ± 0.26.

QKTCLICGDEASGCHYGALTCGSCKVFFKRAAEGKQKYLPASRNDCTIDKFRRKNCPSCRLRKCYEAGMTLGARKL [C40P]: the abundance fitness is -0.756 ± 0.18.

In the case of QKTCLICGDEASGCHYGALTCGSCKVFFKRAAEGKQKYLCASRNDCTIDKFRRKGCPSCRLRKCYEAGMTLGARKL [N55G], the abundance fitness was -0.073 ± 0.11.

As to QKTCLICGDEASGCHYGALTCGSCKVFFKRAAEGKQKYLCASRNDCTIDKFRRKACPSCRLRKCYEAGMTLGARKL [N55A], the abundance fitness worked out at 0.089 ± 0.096.

For the variant QKTCLICGDEASGCHYGALTCGSCKMFFKRAAEGKQKYLCASRNDCTIDKFRRKNCPSCRLRKCYEAGMTLGARKL [V26M], the abundance fitness worked out at 0.053 ± 0.042.

Regarding QKTCLICGDEASGCHYGALTCGSCKAFFKRAAEGKQKYLCASRNDCTIDKFRRKNCPSCRLRKCYEAGMTLGARKL [V26A], the abundance fitness is -0.108 ± 0.12.

Consider QKTCLICGDEASGCHYGALTCGSCKVFFKRAAFGKQKYLCASRNDCTIDKFRRKNCPSCRLRKCYEAGMTLGARKL [E33F], for which the abundance fitness was -0.343 ± 0.069.

As for QKTCLICGDEASGCHYGALTCGSCKVFFKRAAWGKQKYLCASRNDCTIDKFRRKNCPSCRLRKCYEAGMTLGARKL [E33W], the abundance fitness was -0.25 ± 0.082.

With QKTCLICGDEASGCHYGALTCGSCKVYFKRAAEGKQKYLCASRNDCTIDKFRRKNCPSCRLRKCYEAGMTLGARKL [F27Y], the abundance fitness is -0.598 ± 0.068.

For QKTCLICGDEASGCHYGALTCGSCKVLFKRAAEGKQKYLCASRNDCTIDKFRRKNCPSCRLRKCYEAGMTLGARKL [F27L], the abundance fitness is -0.766 ± 0.058.

Consider QKTCLICGDEASGCHYGALTCGSCKVGFKRAAEGKQKYLCASRNDCTIDKFRRKNCPSCRLRKCYEAGMTLGARKL [F27G], for which the abundance fitness was -0.884 ± 0.065.

For QKTCLICGDEASGCHYGALTCGSCKVFFKRAYEGKQKYLCASRNDCTIDKFRRKNCPSCRLRKCYEAGMTLGARKL [A32Y], the abundance fitness is -0.145 ± 0.065.

QKTCLICGDEASGCHYGALTCGSCKVFFKRALEGKQKYLCASRNDCTIDKFRRKNCPSCRLRKCYEAGMTLGARKL [A32L]: the abundance fitness was -0.167 ± 0.046.

For QKTCLICGSEASGCHYGALTCGSCKVFFKRAAEGKQKYLCASRNDCTIDKFRRKNCPSCRLRKCYEAGMTLGARKL [D9S], the abundance fitness was -0.061 ± 0.064.

For the variant QKTCLICGDEASGCHYGALTCGSCKVFFKRAAEGKQKYLCASRNDCTFDKFRRKNCPSCRLRKCYEAGMTLGARKL [I48F], the abundance fitness was -0.226 ± 0.042.

Take QKTCLICGDEASGCHYGALTCGSCKVFFKRAAEGKQKSLCASRNDCTIDKFRRKNCPSCRLRKCYEAGMTLGARKL [Y38S]: the abundance fitness was -0.116 ± 0.061.

For the variant QKNCLICGDEASGCHYGALTCGSCKVFFKRAAEGKQKYLCASRNDCTIDKFRRKNCPSCRLRKCYEAGMTLGARKL [T3N], the abundance fitness turned out to be 0.035 ± 0.2.

For the variant QKDCLICGDEASGCHYGALTCGSCKVFFKRAAEGKQKYLCASRNDCTIDKFRRKNCPSCRLRKCYEAGMTLGARKL [T3D], the abundance fitness is -0.171 ± 0.084.

As for QKTCLICGDEASGCHYGAQTCGSCKVFFKRAAEGKQKYLCASRNDCTIDKFRRKNCPSCRLRKCYEAGMTLGARKL [L19Q], the abundance fitness is 0.059 ± 0.11.

For QKTCLICGDEASGCHYGADTCGSCKVFFKRAAEGKQKYLCASRNDCTIDKFRRKNCPSCRLRKCYEAGMTLGARKL [L19D], the abundance fitness is -0.048 ± 0.063.

On to QKTCLICGDEASGCHYGAMTCGSCKVFFKRAAEGKQKYLCASRNDCTIDKFRRKNCPSCRLRKCYEAGMTLGARKL [L19M], for which the abundance fitness is -0.03 ± 0.075.

With QKTCLICGDEASGCHYGAKTCGSCKVFFKRAAEGKQKYLCASRNDCTIDKFRRKNCPSCRLRKCYEAGMTLGARKL [L19K], the abundance fitness was -0.015 ± 0.043.

With QKTCLICGDEASGCHYGAITCGSCKVFFKRAAEGKQKYLCASRNDCTIDKFRRKNCPSCRLRKCYEAGMTLGARKL [L19I], the abundance fitness is -0.034 ± 0.1.

Turning to QKTCLICGDEASGCHYGANTCGSCKVFFKRAAEGKQKYLCASRNDCTIDKFRRKNCPSCRLRKCYEAGMTLGARKL [L19N], the abundance fitness is -0.065 ± 0.057.

Consider QKTCLICGDEASGCHYGALTCGSCKVFFKRAAEGYQKYLCASRNDCTIDKFRRKNCPSCRLRKCYEAGMTLGARKL [K35Y], for which the abundance fitness is -0.034 ± 0.069.

QKTCLICGDEASGCHYGALTCGSCKVFFKRAAEGKQTYLCASRNDCTIDKFRRKNCPSCRLRKCYEAGMTLGARKL [K37T]: the abundance fitness was 0.01 ± 0.077.

As to QKTCLICGDEASGCHYGALTCGSCKVFFKRAAEGKQKYLCASRNDCTIDKFRRKNCPSCRLRKCREAGMTLGARKL [Y65R], the abundance fitness is -0.117 ± 0.049.
